This note sets out measurements from patent publication US20180201649A1 (YALE UNIVERSITY, published 2018).

This test addresses T1, endothelial nitric oxide synthase (eNOS) (bovine (endogenous in BAEC), UniProt P29473 2-1205).
T1 sequence (looked up): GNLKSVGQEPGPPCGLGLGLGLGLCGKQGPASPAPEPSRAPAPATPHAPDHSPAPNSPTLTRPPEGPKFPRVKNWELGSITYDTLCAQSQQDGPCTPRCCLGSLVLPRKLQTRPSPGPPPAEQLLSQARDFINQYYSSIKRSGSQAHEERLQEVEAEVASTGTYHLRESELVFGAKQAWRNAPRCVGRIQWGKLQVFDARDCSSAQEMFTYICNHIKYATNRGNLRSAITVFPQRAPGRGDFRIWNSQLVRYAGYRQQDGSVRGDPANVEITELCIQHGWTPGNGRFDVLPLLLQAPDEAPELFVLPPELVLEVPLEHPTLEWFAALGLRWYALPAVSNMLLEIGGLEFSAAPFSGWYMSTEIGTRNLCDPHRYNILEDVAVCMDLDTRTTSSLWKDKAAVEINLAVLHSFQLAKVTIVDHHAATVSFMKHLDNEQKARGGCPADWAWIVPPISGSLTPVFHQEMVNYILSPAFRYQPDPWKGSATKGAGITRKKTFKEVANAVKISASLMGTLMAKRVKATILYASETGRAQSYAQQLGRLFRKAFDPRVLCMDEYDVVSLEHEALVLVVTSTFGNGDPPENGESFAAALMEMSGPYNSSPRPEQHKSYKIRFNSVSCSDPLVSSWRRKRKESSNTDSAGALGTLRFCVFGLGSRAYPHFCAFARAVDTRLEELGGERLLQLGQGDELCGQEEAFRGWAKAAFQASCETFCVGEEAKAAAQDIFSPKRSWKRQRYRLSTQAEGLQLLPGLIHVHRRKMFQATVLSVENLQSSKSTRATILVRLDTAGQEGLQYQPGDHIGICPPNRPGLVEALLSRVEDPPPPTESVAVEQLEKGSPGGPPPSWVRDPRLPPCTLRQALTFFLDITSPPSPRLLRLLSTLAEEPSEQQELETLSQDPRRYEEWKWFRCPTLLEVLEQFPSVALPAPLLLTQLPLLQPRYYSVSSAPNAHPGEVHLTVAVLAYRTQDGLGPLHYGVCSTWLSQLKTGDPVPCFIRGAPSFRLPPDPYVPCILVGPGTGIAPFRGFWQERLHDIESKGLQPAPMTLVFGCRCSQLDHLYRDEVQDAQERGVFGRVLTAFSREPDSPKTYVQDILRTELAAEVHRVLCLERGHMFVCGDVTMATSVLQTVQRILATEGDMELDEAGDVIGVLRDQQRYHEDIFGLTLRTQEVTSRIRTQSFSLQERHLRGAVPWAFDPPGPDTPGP
The test can be described thus: cell-based or functional assay.

Turning to RRPPRDGIWKASFTTFTVTKYWFYR [Endo5-Cav], the “EC50 of inhibition of VEGF-induced NO release in BAEC” value was found to be 7.5 µM.

With RQIKIWFQNRRMKWKKDGIWKASFTTFTVTKYWFYR [AP-Cav], the “EC50 of inhibition of VEGF-induced NO release in BAEC” value came to 1.8 µM.
